In general, Kd refers to a measure of binding affinity in units of concentration. High values mean a looser complex, low ones a tighter complex.

This note sets out measurements from article PMC6994217 (Science Advances, 2020).

Assay [1] deals with SHP2^1–220 (tandem SH2, both SH2 domains) (human) (UniProt Q06124). The assay can be described thus: SEC-MALS. In general terms: SEC sorts molecules by how far they enter the pores of the column.
For assay [2] the target is unchanged. The assay can be described thus: NMR DOSY.
Assay [3] addresses T1, N-terminal SH2 domain of SHP2 (SHP2^1–105) (human, UniProt Q06124-2 1-105).
T1 sequence: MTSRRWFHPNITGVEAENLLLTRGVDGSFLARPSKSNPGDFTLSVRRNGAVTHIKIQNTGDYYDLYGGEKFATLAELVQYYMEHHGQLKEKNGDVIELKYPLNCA
The assay can be described thus: ITC. On the technique in general: Isothermal titration calorimetry measures the heat released or taken up as one component is titrated into another.

Assay [4] addresses T2, C-terminal SH2 domain of SHP2 (SHP2^106–220) (human, UniProt Q06124-2 106-220).
T2 sequence: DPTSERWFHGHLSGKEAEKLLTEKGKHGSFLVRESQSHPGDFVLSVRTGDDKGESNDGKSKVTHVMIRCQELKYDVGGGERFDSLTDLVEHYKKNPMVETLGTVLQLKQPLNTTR
The assay is described as follows: ITC.

Square brackets hold non-standard residues; d marks the D form. pY = N[C@@H](Cc1ccc(OP(=O)(O)O)cc1)C(=O)O

The molecule “diphosphorylated bidentate peptide ITSM-[dPEG4]2-ITSM, Ac-EQTE(pY)ATIVFP-(dPEG4)-(dPEG4)-EQTE(pY)ATIVFP-NH2” yielded a stoichiometry N (peptide per protein) in assay [1] of 1. Turning to “diphosphorylated bidentate peptide ITIM-[dPEG4]2-ITSM, Ac-FSVD(pY)GELDFQ-(dPEG4)-(dPEG4)-EQTE(pY)ATIVFP-NH2”, the stoichiometry N (peptide per protein) in assay [2] turned out to be 1.

B1: PD-1 ITSM phosphopeptide, Ac-EQTE(pY)ATIVFP-NH2 (peptide)
peptide: Ac-EQTE[pY]ATIVFP-NH2
SMILES: CC[C@H](C)[C@H](NC(=O)[C@@H](NC(=O)[C@H](C)NC(=O)[C@H](Cc1ccc(OP(=O)(O)O)cc1)NC(=O)[C@H](CCC(=O)O)NC(=O)[C@@H](NC(=O)[C@H](CCC(N)=O)NC(=O)[C@H](CCC(=O)O)NC(C)=O)[C@@H](C)O)[C@@H](C)O)C(=O)N[C@H](C(=O)N[C@@H](Cc1ccccc1)C(=O)N1CCC[C@H]1C(N)=O)C(C)C
Regarding B1, the equilibrium dissociation constant (Kd) in assay [3] came to 0.167 µM; in assay [4], 0.013 µM.

B2: PD-1 ITIM phosphopeptide, Ac-FSVD(pY)GELDFQ-NH2 (peptide)
peptide: Ac-FSVD[pY]GELDFQ-NH2
SMILES: CC(=O)N[C@@H](Cc1ccccc1)C(=O)N[C@@H](CO)C(=O)N[C@H](C(=O)N[C@@H](CC(=O)O)C(=O)N[C@@H](Cc1ccc(OP(=O)(O)O)cc1)C(=O)NCC(=O)N[C@@H](CCC(=O)O)C(=O)N[C@@H](CC(C)C)C(=O)N[C@@H](CC(=O)O)C(=O)N[C@@H](Cc1ccccc1)C(=O)N[C@@H](CCC(N)=O)C(N)=O)C(C)C
B2: the Kd worked out at 1.9 µM in assay [3] and 26.4 µM in assay [4].
